Experimental findings from article PMC4738263 (Scientific Reports, 2016) are described below.

The series concerns the molecule itself. The series can be described thus: crystal structure; dimeric HT cyt c552 without a His-tag obtained from E. coli by freeze-thaw, purified; sitting-drop vapor diffusion at room temperature; 1.8 Å.

One may read the stoichiometry N as the number of molecules, sites or subunits per partner or assembly.

B1: Hydrogenobacter thermophilus cytochrome c552, wild type, without a His-tag (holo protein) (natural protein, UniProt P15452 19-98, looked up)
chain: NEQLAKQKGCMACHDLKAKKVGPAYADVAKKYAGRKDAVDYLAGKIKKGGSGVWGSVPMPPQNVTDAEAKQLAQWILSIK
modifications: heme c attached (holo protein)
B1: the “stoichiometry N” value amounted to 2.
